B1: recombinant DR3 (DR3-His tag) (receptor, human, UniProt Q93038 25-199, looked up)
chain: QGGTRSPRCDCAGDFHKKIGLFCCRGCPAGHYLKAPCTEPCGNSTCLVCPQDTFLAWENHHNSECARCQACDEQASQVALENCSAVADTRCGCKPGWFVECQVSQCVSSSPFYCQPCLDCGALHRHTRLLCSRRDTDCGTCLPGFYEHGDGCVSCPTSTLGSCPERCAAVCGWRQ
notes: it is treated as the same reagent; also called rDR3; death receptor 3; not shown: His tag

Key:
[1] = target: B1; assay: phage ELISA of single scFv clones on recombinant DR3
[2] = target: B1; assay: ELISA, DR3-His tag on Ni plate, anti-human IgG Fc HRP
Method: The functionally best subclass of the anti-DR3 4-4 antibody identified as the best in Example 2 was analyzed. For this purpose, as anti-DR3 4-4 antibodies, clone 4-4 IgG1, clone 4-4 IgG2, and clone 4-4 IgG4 monoclonal antibodies were prepared according to IgG subclass, and ELISA was performed to compare the binding affinity to DR3. Specifically, 0.4 μg/ml DR3-His tag was put into and mixed with PBS, and then a Ni plate was coated with a total of 50 μl of the mixed solution. Thereafter, to prevent non-specific binding, the Ni plate was mixed with 200 μl of PBS consisting of 5% FBS and incubated at room temperature for 30 minutes, and incubated for 30 minutes by titrating the monoclonal antibody. The degree of binding between the coated DR3 and the monoclonal antibody was detected with anti-human IgG Fc HRP. The plate was washed five times with 250 μl of 0.1% Tween 20 at each step.

[3] = target: T1, DR3 expressed on the cell surface (DR3 stable cell line) (human, UniProt Q93038 25-417); assay: FACS on DR3 stable cell line, 2 ug/ml antibody, anti-human IgG PE
T1 construct: whole, on cells; also called DR3 natural form; human DR3
T1 sequence (looked up): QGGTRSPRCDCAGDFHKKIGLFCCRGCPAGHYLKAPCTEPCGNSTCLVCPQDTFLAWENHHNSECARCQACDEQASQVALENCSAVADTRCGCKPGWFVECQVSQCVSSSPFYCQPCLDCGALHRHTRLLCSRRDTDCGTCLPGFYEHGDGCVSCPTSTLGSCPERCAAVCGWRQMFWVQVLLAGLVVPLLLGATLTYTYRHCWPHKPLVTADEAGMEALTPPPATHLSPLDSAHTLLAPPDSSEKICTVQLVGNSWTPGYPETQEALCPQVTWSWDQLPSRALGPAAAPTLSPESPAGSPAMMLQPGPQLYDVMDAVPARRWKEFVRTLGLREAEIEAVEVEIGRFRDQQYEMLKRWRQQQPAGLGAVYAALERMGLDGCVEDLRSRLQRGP
Method: FACS was performed using monoclonal antibodies from the clones selected in Example 1. Specifically, a DR3 stable cell line at a concentration of 0.2×10⁶ was mixed with 2 μg/ml monoclonal antibody and incubated at 4° C. for 30 minutes, and the degree of binding between the DR3 stable cell line and the monoclonal antibody was confirmed by FACS analysis using anti-human IgG PE. For each step, cells were washed once with 200 μl of PBS. Isotype control was used as a negative control.

[4] = target: B1; assay: SPR, Biacore T100, DR3-His tag immobilized on CM5 chip
Method: (§1) SPR was performed using monoclonal antibodies from the clones selected in Example 1. After immobilizing 10 μg/ml DR3-His tag on a CM5 chip, the binding specificity and binding strength were measured using Biacore T100 under the conditions of a contact time of 30 sec and a flow rate of […].

[5] = target: T2, TL1A (tumor necrosis factor-like ligand 1A), His tag (human, UniProt O95150 72-251); assay: SPR, Biacore T100, DR3-His tag immobilized on CM5 chip; TL1A as reference
T2 construct: also called TL1A His tag; TL1A-His tag; not shown: His tag
T2 sequence (looked up): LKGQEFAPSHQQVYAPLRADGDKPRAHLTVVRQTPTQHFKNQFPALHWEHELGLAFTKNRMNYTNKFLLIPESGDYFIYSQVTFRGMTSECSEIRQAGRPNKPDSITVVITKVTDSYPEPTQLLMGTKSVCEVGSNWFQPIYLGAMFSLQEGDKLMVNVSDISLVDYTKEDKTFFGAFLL
Method: as §1

| Binder | binding result [1] | binding result [2] | other results |
| --- | --- | --- | --- |
| anti-DR3 scFv clone 2-10 (phage display) (scFv, V domains shown) VH: QVQLVQSGAEVKKPGASVKVSCKASGYTFTSYGISWVRQAPGQGLEWMGWISAYNGNTNYAQKLQGRVTMTTDTSTSTAYMELRSLRSDDTAVYYCASGPDYGMLDYWGQGTLVTVS VL: EIVMTQSPSSLPASVGDRVTITCQASQDISNYLNWYQQKPGKAPKLLIYDASNLETGVPSRFSGSGSGTDFTFTISSPQPEDIATYYCQQYDNLPLTFGGGTKVEIK | binds |  |  |
| anti-DR3 6-15 monoclonal antibody (antibody, V domains shown, Human IgG; also called 6-15 mAb; clone 6-15) VH: QVQLVQSGGGLVQPGGSLRLSCAASGFTFSSYSMNWVRQAPGKGLEWVSYISSSSSTIYYADSVKGRFTISRDNAKNSLYLQMNSLRAEDTAVYYCARWDGYCSGGSCYSGMDYWGQGTLVTVS VL: DIEMTQSPSSLSASVGDKVTITCQASQDISNYLNWYQQKPGKAPKLLIYDASNLETGVPSRFSGSGSGTDSTFTISSLQPEDIATYYCQQYDNLPLTFGGGTKVEIK |  | binds | binding result [3]: binds |
| anti-DR3 2-10 monoclonal antibody (antibody, V domains shown, Human IgG (detected with anti-human IgG Fc); also called 2-10 mAb; clone 2-10) VH: QVQLVQSGAEVKKPGASVKVSCKASGYTFTSYGISWVRQAPGQGLEWMGWISAYNGNTNYAQKLQGRVTMTTDTSTSTAYMELRSLRSDDTAVYYCASGPDYGMLDYWGQGTLVTVS VL: EIVMTQSPSSLPASVGDRVTITCQASQDISNYLNWYQQKPGKAPKLLIYDASNLETGVPSRFSGSGSGTDFTFTISSPQPEDIATYYCQQYDNLPLTFGGGTKVEIK |  |  | binding result [4]: binds |
| anti-DR3 3-18 monoclonal antibody (antibody, V domains shown, Human IgG; also called 3-18 mAb; clone 3-18) VH: QVQLQQSGPGLVKPSETLSLTCTVSGGSISSSSYYWGWIRQPPGKGLEWIGSIYYSGSTYYNPSLKSRVTISVDTSKNQFSLKLSSVTAADTAVYYCARQVSGPLDYWGQGTLVTVS VL: DIVMTQSPSSLSASVGDRVTITCRASQGIRNDLGWYQQKPGKAPKLLIYAASSLQSGVPSRFSGSGSGTDFTLTISSLQPEDFATYYCLQDYNYPRTFGQGTKVEIK |  |  | binding result [4]: binds |
| anti-DR3 4-4 monoclonal antibody (subclass not stated) (antibody, V domains shown, also called 4-4 mAb; clone 4-4) VH: EVQLVESGGGLVKPGGSLRLSCAASGFTFSDYYMSWIRQAPGKGLEWVSYISSSSSYTNYADSVKGRFTISRDNAKNSLYLQMNSLRAEDTAVYYCASNVDTAMVGAFDIWGQGTLVTVS VL: DIEMTQSPSSVSASVGDTVTITCRASQHISNWLAWYQQKPGQAPKFLIYTASNLQSGVPSRFSGSGYGTDFTLTISGLQPEDFATYYCQQADSFPLTFGGGTKVDIK |  |  | binding result [4]: binds; binding result [3]: binds |
| B1 |  |  | binding result [5]: binds |
| anti-DR3 scFv clone 3-18 (phage display) (scFv, V domains shown) VH: QVQLQQSGPGLVKPSETLSLTCTVSGGSISSSSYYWGWIRQPPGKGLEWIGSIYYSGSTYYNPSLKSRVTISVDTSKNQFSLKLSSVTAADTAVYYCARQVSGPLDYWGQGTLVTVS VL: DIVMTQSPSSLSASVGDRVTITCRASQGIRNDLGWYQQKPGKAPKLLIYAASSLQSGVPSRFSGSGSGTDFTLTISSLQPEDFATYYCLQDYNYPRTFGQGTKVEIK | binds |  |  |
| clone 4-4 IgG1 monoclonal antibody (antibody, V domains shown, IgG1 subclass; also called anti-DR3 4-4 IgG1 antibody) VH: EVQLVESGGGLVKPGGSLRLSCAASGFTFSDYYMSWIRQAPGKGLEWVSYISSSSSYTNYADSVKGRFTISRDNAKNSLYLQMNSLRAEDTAVYYCASNVDTAMVGAFDIWGQGTLVTVS VL: DIEMTQSPSSVSASVGDTVTITCRASQHISNWLAWYQQKPGQAPKFLIYTASNLQSGVPSRFSGSGYGTDFTLTISGLQPEDFATYYCQQADSFPLTFGGGTKVDIK |  | binds |  |
| anti-DR3 4-4 IgG4 monoclonal antibody (antibody, V domains shown, also called clone 4-4 IgG4; human 4-4 IgG4P mAb) VH: EVQLVESGGGLVKPGGSLRLSCAASGFTFSDYYMSWIRQAPGKGLEWVSYISSSSSYTNYADSVKGRFTISRDNAKNSLYLQMNSLRAEDTAVYYCASNVDTAMVGAFDIWGQGTLVTVSS VL: DIEMTQSPSSVSASVGDTVTITCRASQHISNWLAWYQQKPGQAPKFLIYTASNLQSGVPSRFSGSGYGTDFTLTISGLQPEDFATYYCQQADSFPLTFGGGTKVDIKR |  | binds |  |
| clone 4-4 IgG2 monoclonal antibody (antibody, V domains shown, IgG2 subclass) VH: EVQLVESGGGLVKPGGSLRLSCAASGFTFSDYYMSWIRQAPGKGLEWVSYISSSSSYTNYADSVKGRFTISRDNAKNSLYLQMNSLRAEDTAVYYCASNVDTAMVGAFDIWGQGTLVTVS VL: DIEMTQSPSSVSASVGDTVTITCRASQHISNWLAWYQQKPGQAPKFLIYTASNLQSGVPSRFSGSGYGTDFTLTISGLQPEDFATYYCQQADSFPLTFGGGTKVDIK |  | binds |  |
| anti-DR3 scFv clone 4-4 (phage display) (scFv, V domains shown) VH: EVQLVESGGGLVKPGGSLRLSCAASGFTFSDYYMSWIRQAPGKGLEWVSYISSSSSYTNYADSVKGRFTISRDNAKNSLYLQMNSLRAEDTAVYYCASNVDTAMVGAFDIWGQGTLVTVS VL: DIEMTQSPSSVSASVGDTVTITCRASQHISNWLAWYQQKPGQAPKFLIYTASNLQSGVPSRFSGSGYGTDFTLTISGLQPEDFATYYCQQADSFPLTFGGGTKVDIK | binds |  |  |
| anti-DR3 scFv clone 6-15 (phage display) (scFv, V domains shown) VH: QVQLVQSGGGLVQPGGSLRLSCAASGFTFSSYSMNWVRQAPGKGLEWVSYISSSSSTIYYADSVKGRFTISRDNAKNSLYLQMNSLRAEDTAVYYCARWDGYCSGGSCYSGMDYWGQGTLVTVS VL: DIEMTQSPSSLSASVGDKVTITCQASQDISNYLNWYQQKPGKAPKLLIYDASNLETGVPSRFSGSGSGTDSTFTISSLQPEDIATYYCQQYDNLPLTFGGGTKVEIK | binds |  |  |

Reference: patent US20260159596A1 (SELECXINE, published 2026)
